Results: patent publication US20030119096A1 (published 2003)

T1: rat GALR3 receptor (rat, UniProt O88626 1-370)
T1 construct: also called rGALR3; rGalR3
T1 sequence: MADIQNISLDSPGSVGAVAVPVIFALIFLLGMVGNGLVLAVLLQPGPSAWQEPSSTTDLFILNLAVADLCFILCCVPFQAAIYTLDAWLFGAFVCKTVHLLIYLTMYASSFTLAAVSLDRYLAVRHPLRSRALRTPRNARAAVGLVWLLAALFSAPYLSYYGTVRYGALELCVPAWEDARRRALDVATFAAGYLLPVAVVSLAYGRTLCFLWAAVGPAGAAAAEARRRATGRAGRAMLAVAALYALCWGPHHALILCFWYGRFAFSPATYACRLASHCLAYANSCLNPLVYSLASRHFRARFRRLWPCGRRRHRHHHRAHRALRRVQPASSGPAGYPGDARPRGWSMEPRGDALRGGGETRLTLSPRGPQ

B1: (-)9 to (+)29 galanin, porcine (peptide, UniProt P07480 24-61, looked up)
peptide: LGSPVKEKRGWTLNSAGYLLGPHAIDNHRSFHDKYGLA
notes: range -9 to +29; also called galanin -9 to +29

Columns and labels:
[1] = molecular target: human GALR3 receptor (human) (UniProt O60755); test: cell-based or functional assay
rat GALR1 receptor (rat) = rat GALR1 receptor (rat) (UniProt Q62805); test: cell-based or functional assay
rat GALR2 receptor (rat) = rat GALR2 receptor (rat) (UniProt O08726); test: cell-based or functional assay
rat GALR3 receptor = molecular target: T1, rat GALR3 receptor; test: porcine 125I-galanin competition binding, 293 #105

Chain of human GALR3 receptor (human) (O60755 whole entry): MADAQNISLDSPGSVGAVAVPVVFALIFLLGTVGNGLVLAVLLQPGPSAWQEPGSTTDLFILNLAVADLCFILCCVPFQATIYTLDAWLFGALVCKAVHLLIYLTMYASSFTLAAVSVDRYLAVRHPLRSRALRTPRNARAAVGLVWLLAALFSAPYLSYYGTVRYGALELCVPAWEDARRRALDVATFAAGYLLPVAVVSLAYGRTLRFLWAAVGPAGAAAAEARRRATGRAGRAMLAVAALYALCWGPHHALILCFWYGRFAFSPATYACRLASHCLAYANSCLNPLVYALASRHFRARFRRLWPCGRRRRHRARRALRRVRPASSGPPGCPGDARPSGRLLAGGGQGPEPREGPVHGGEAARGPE
Chain of rat GALR2 receptor (rat) (O08726 whole entry): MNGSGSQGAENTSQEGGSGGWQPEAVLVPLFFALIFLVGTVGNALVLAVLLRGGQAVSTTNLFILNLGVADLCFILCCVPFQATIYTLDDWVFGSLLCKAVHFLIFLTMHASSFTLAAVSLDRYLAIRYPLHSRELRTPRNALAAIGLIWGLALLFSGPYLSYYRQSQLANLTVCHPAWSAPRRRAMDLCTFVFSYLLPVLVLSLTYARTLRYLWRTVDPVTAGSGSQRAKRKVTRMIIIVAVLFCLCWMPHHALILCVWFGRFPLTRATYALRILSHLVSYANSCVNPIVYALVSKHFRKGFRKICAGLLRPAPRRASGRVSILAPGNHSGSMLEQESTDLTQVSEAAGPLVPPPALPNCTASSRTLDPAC
Chain of rat GALR1 receptor (rat) (Q62805 whole entry): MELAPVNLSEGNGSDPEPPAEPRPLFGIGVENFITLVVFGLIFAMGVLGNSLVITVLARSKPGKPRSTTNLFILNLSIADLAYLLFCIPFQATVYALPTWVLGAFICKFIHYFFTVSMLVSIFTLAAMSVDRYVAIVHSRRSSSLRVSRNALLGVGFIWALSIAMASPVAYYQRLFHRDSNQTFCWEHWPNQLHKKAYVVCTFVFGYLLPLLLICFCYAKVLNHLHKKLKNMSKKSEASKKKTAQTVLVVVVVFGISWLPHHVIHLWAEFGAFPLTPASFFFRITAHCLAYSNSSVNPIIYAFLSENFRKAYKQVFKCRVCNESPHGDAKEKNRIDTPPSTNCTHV

Oocyte EC50 for stimulation of GIRKs [1]	EC50, cAMP, LM(tk-) (rat GALR1 receptor (rat))	EC50, AA (arachidonic acid release), CHO #79 (rat GALR2 receptor (rat))	Ki (rat GALR3 receptor)	Molecule
343 nM	0.52 nM	2.41 nM	–	C7 (peptide)
–	–	–	4.17 nM	B1
